Our source for the proteolysis of purified human SOD1 by purified rat PSA/NPEPPS: loss of full-length SOD1 by Western blot after 6 h values is publication PMC3113298.

The experiment deals with Cu, Zn-superoxide dismutase-1 (SOD1), human (human) (UniProt P00441).
Sequence of Cu, Zn-superoxide dismutase-1 (SOD1), human (human) (P00441 whole entry): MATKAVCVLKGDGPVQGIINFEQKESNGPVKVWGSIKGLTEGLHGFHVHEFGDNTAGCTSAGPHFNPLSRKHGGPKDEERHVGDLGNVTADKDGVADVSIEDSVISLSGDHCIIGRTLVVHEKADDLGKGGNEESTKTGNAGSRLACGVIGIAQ

B1: Puromycin-sensitive aminopeptidase (PSA/NPEPPS), rat (enzyme)
chain: MWLAAAVPSLARRLLLLGSPPPPLLLLLSRSSSRRRRLHSLGLAAMPEKRPFERLPTEVSPINYSLCLKPDLLDFTFEGKLEAAAQVRQATNQIVMNCADIDIITASYAPEGDEEIHATGFNYQNEDEKVTLSFPSTLQTGTGTLKIDFVGELNDKMKGFYRSRYTTPAGEVRYAAVTQFEATDARRAFPCWDEPAIKATFDISLVVPKDRVALSNMNVIDRKPYPDDENLVEVKFARTPVMSTYLVAFVVGEYDFVETRSKDGVCVRVYTPVGKAEQGKFALEVAAKTLPFYKDYFNVPYPLPKIDLIAIADFAAGAMENWGLVTYRETALLIDPKNSCSSSRQWVALVVGHELAHQWFGNLVTMEWWTHLWLNEGFASWIEYLCVDHCFPEYDIWTQFVSADYTRAQELDALDNSHPIEVSVGHPSEVDEIFDAISYSKGASVIRMLHDYIGDKDFKKGMNMYLTKFQQKNAATEDLWESLESASGKPIAAVMNTWTKQMGFPLIYVEAEQVEDDRVLKLSQKKFCASGPYVGEDCPQWMVPITISTSEDPNQAKLKILMDKPEMSVVLKNVKPDQWVKLNLGTVGFYRTQYSSAMLESLLPGIRDLSLPPVDRLGLQNDLFSLARAGIISTVEVLKVMEAFVNEPNYTVWSDLSCNLGILSTLLSHTDFYEEIQEFVKDVFSPIGERLGWDPKPGEGHLDALLRGLVLGKLGKAGHKATLEEARRRFKEHVEGKQILSADLRSPVYLTVLKHGDGTTLDIMLKLHKQADMQEEKNRIERVLGATLSPELIQKVLTFALSEEVRPQDTVSVIGGVAGGSKHGRKAAWKFIKDNWEELYNRYQGGFLISRLIKLSVEGFAVDKMAGEVKAFFESHPAPSAERTIQQCCENILLNAAWLKRDADSIHQYLLQRKASPPSV
Turning to B1, the proteolysis of purified human SOD1 by purified rat PSA/NPEPPS: loss of full-length SOD1 by Western blot after 6 h at 37°C, 50 mM Bicine pH 7.0, 0.2 mM DTT, molar ratio 1:6 (PSA:SOD1) is 80%.
